T1: myc-tagged Tdrd2, Q80VL1
T1 chain: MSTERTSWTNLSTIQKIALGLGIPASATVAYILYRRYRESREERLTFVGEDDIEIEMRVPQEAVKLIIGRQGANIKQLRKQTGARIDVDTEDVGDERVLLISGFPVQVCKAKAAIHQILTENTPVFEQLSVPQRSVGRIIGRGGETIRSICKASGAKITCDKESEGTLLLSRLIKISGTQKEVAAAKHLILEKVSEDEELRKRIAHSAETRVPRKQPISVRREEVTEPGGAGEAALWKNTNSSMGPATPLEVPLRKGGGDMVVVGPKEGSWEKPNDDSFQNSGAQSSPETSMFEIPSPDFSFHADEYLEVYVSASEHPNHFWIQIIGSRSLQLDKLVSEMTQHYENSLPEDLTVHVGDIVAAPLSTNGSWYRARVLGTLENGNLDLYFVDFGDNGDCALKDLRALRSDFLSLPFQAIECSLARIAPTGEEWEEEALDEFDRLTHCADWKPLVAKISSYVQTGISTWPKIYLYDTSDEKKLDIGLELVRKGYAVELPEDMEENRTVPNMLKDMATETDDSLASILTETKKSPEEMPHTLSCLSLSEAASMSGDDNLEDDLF


Key:
Assay in all cases: co-IP
[1] = target: FLAG-tagged Mili N-terminal domain (mouse)
[2] = target: FLAG-tagged Mili region containing the PAZ, Mid, and Piwi domains (mouse)
myc-tagged Tdrd2, Q80VL1 = target: T1, myc-tagged Tdrd2, Q80VL1; conditions: remark: other sources report otherwise

Binder	co-IP of Tdrd1 as percent of full-length Mili [1] [%]	binding as percent of the wildtype level [2] [%]	fold weaker interaction than with Tdrd1 (myc-tagged Tdrd2, Q80VL1) [fold]
myc-tagged Tdrd1 (natural protein) MMPRNNLEASTCKMAEPFNFEKKESKPPPQDPLRSPVAQHNHPTFRLKSPENGNTKNNFLLCEQNKQYLASQEDSSVVSSNPAVVNGEVGGSKGDRKPPPTGNPVSPLSLGNSSPPNQVKTKPSSNVTPEKSKKSHKLFENALSVNNPALFNSLGPPLRSTTCHRCGLFGSLRCSQCKQTYYCSTACQRRDWSSHSTICRPVQQSLNKLEDNKSPFETKAIEVKSEVDCPPGVTKEITAGAERVMFSDLRSLQLKKTMEIKGTVTEFKHPSNFYIQLYSSEVLENMNQLSTSLKETYANVVPEDGYLPVKGEVCVAKYTVDQTWNRAIVQAVDVLQRKAHVLYIDYGNEEMIPIDSVHPLSRGLDLFPPSAIKCCVSGVIPTAGEWSEGCVAAVKALLFEQFCSVKVMDILEEEVLTCAVDLVLQSSGKQLDHVLVEMGYGVKPGEQSSTEQSVDHSALEDVGRVTVESKIVTDRNALIPKVLTLNVGDEFCGVVAHIQTPEDFFCQQLQSGHKLAELQESLSEYCGHVIPRSDFYPTIGDVCCAQFSEDDQWYRASVLAYASEESVLVGYVDYGNFEILSLKRLCPIIPKLLDLPMQALNCVLAGVKPSLGIWTPEAVCVMKEMVQNRMVTVRVVGMLGTRALVELIDKSVAPHVSASKALIDSGFAIKEKDVADKGSSMHTASVPLAIEGPAEALEWTWVEFTVDETVDVVVCMMYSPGEFYCHFLKDDALEKLDDLNQSLADYCAQKPPNGFKAEIGRPCCAFFSGDGNWYRALVKEILPSGNVKVHFVDYGNVEEVTTDQLQAILPQFLLLPFQGMQCWLVDIQPPNKHWTKEATARFQACVVGLKLQARVVEITANGVGVELTDLSTPYPKIISDVLIREQLVLRCGSPQDSLMSRPANQHKQIDSHRVQASPSAEQWKTMELPVNKTIAANVLEIISPALFYAIPSEMSENQEKLCVLAAELLEHCNAQKGQPAYRPRTGDACCAKYTNDDFWYRAIVLETSESDVKVLYADYGNIETLPLSRVQPIPASHLELPFQIIRCSLEGPMELNGSCSQLVMELLRNAMLNQSVVLSVKAISKNVHAVSVEKCSENGMINIAENLVMCGLAENLTSKRKSASTKEIPHSRDCCCTELQKQIEKHEQILLFLLNNPTNQSKFTEMKKLLRS	76	11	–
FLAG-tagged Mili, Q8CDG1 1-971 (natural protein) MDPVRPLFRGPTPVHPSQCVRMPGCWPQAPRPLEPAWGRAGPAGRGLVFRKPEDSSPPLQPVQKDSVGLVSMFRGMGLDTAFRPPSKREVPPLGRGVLGRGLSANMVRKDREEPRSSLPDPSVLAAGDSKLAEASVGWSRMLGRGSSEVSLLPLGRAASSIGRGMDKPPSAFGLTARDPPRLPQPPALSPTSLHSADPPPVLTMERKEKELLVKQGSKGTPQSLGLNLIKIQCHNEAVYQYHVTFSPSVECKSMRFGMLKDHQSVTGNVTAFDGSILYLPVKLQQVVELKSQRKTDDAEISIKIQLTKILEPCSDLCIPFYNVVFRRVMKLLDMKLVGRNFYDPTSAMVLQQHRLQIWPGYAASIRRTDGGLFLLADVSHKVIRNDSVLDVMHAIYQQNKEHFQDECSKLLVGSIVITRYNNRTYRIDDVDWNKTPKDSFVMSDGKEITFLEYYSKNYGITVKEDDQPLLIHRPSERQNNHGMLLKGEILLLPELSFMTGIPEKMKKDFRAMKDLTQQINLSPKQHHGALECLLQRISQNETASNELTRWGLSLHKDVHKIEGRLLPMERINLRNTSFVTSEDLNWVKEVTRDASILTIPMHFWALFYPKRAMDQARELVNMLEKIAGPIGMRISPPAWVELKDDRIETYIRTIQSLLGVEGKIQMVVCIIMGTRDDLYGAIKKLCCVQSPVPSQVINVRTIGQPTRLRSVAQKILLQMNCKLGGELWGVDIPLKQLMVIGMDVYHDPSRGMRSVVGFVASINLTLTKWYSRVVFQMPHQEIVDSLKLCLVGSLKKYYEVNHCLPEKIVVYRDGVSDGQLKTVANYEIPQLQKCFEAFDNYHPKMVVFVVQKKISTNLYLAAPDHFVTPSPGTVVDHTITSCEWVDFYLLAHHVRQGCGIPTHYICVLNTANLSPDHMQRLTFKLCHMYWNWPGTIRVPAPCKYAHKLAFLSGQILHHEPAIQLCGNLFFL	–	–	20
